This is an account of results in article PMC3986302 (International Journal of Nanomedicine, 2014).

The target of this experiment is T1, full-length p63 (GST-fusion) (human, UniProt Q9H3D4 1-680).
T1 sequence (looked up): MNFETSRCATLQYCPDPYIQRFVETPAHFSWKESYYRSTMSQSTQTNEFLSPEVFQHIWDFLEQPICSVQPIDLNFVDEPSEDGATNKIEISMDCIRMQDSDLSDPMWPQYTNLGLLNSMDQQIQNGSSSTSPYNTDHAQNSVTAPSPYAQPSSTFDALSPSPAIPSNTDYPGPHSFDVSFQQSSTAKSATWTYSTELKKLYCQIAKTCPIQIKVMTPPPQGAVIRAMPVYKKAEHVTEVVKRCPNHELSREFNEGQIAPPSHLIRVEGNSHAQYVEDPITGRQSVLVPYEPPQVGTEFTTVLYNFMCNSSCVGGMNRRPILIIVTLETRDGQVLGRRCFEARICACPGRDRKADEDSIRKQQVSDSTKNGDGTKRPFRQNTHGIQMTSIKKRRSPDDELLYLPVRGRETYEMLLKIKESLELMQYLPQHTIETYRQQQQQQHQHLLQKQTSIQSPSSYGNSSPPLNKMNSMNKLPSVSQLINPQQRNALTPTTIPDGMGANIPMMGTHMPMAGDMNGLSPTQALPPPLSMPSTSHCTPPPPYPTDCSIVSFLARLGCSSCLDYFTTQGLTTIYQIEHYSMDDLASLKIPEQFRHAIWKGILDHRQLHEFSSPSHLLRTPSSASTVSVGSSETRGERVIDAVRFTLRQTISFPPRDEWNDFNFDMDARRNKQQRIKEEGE
The experiment is described as follows: atomic force spectroscopy.

B1: p28 (peptide)
peptide: LSTAADMQGVVTDGMASGLDKDYLKPDD
For the molecule B1, the binding result is reported as “binds”.
